Assay [1] has as its target T1, 4-1BB antigen (human, UniProt Q07011 24-186, limits assumed).
T1 construct: also called human 4-1BB; h4-1BB
In words: summary of the BIAcore results; ratio against Hz4B4-1.

Assay [2] has as its target T1, 4-1BB antigen. In words: summary of the BIAcore results; ratio against mouse monoclonal antibody 4B4-1-1.
The target of assay [3] is T1, 4-1BB antigen. The experiment in a line: BIAcore SPR; ratio of Kd against mouse monoclonal antibody 4B4-1-1. Here is the method: (§1) The binding affinity of the mouse monoclonal antibody 4B4-1-1 and humanized antibody were determined and compared using the BIAcore™ assay (Pharmacia). Rabbit anti-mouse IgG (Sigma) and goat anti-human IgG (Fc-specific) were each diluted in 10 mM acetic acid buffer, and coupled to a Dextran CM-5 sensor chip (Pharmacia). 1 M ethanolamine was added to stop the reaction. Mouse monoclonal antibody 4B4-1-1 and humanized antibody Hz4B4-1 were each diluted to a concentration of 50 μg/ml in HEPES buffer (HBS). The coupled antibodies were bound at 100 resonance units (R.U.), and 25 μg/ml of 4-1BB antigen was applied at a flow rate of 10 μl/min. and bound for 5 minutes. HBS buffer (Pharmacia) was applied for 5 minutes at the same flow rate so that dissociation would occur. The association rate and dissociation rates and corresponding rate constants were determined by using BIA evaluation software. The results are shown in Table 2 as $kon$ and $koff$ values; K_d is also shown.
(§2) The antigen binding affinity of the purified Hz4B4-2 humanized antibody was measured as in Example 5 using the BIAcore™ assay (Pharmacia).

Assay [4] deals with T1, 4-1BB antigen. In words: BIAcore SPR as in Example 5; antibody captured, 4-1BB antigen in flow. Here is the method:
as §1, §2
For orientation: In SPR one partner is held on a chip, and binding of the other changes the refractive index at the surface.

Assay [5] addresses T1, 4-1BB antigen. In words: BIAcore SPR; antibody captured by anti-mouse IgG on a CM-5 chip, 4-1BB antigen 25 µg/ml in flow. How it is done: as §1
Assay [6] concerns the target T1, 4-1BB antigen. In words: BIAcore SPR; antibody captured by anti-human IgG (Fc-specific) on a CM-5 chip, 4-1BB antigen 25 µg/ml in flow. Here is the method:
as §1

Numbering of substitutions follows the chain as printed.

B1: humanized antibody Hz4B4-2 (antibody, V domains shown)
VH: QVQLVQSGAEVKKPGASVKVSCKASGYTFSSYWMHWVRQAPGQRLEWMGEINPGNGHTNYSQKFQGRVTITVDKSASTAYMELSSLRSEDTAVYYCARSFTTARAFAYWGQGTLVTVSS
VL: DIVMTQSPPTLSLSPGERVTLSCRASQSISDYLHWYQQKPGQSPRLLIKYASQSISGIPARFSGSGSGTDFTLTISSLEPEDFAVYYCQDGHSFPPTFGGGTKVEIK
notes: Whole antibody made in CHO-K1 cells (SB500 clone); The variable regions were put into the Hz4B4-1 expression vectors, so it has the same human kappa and human heavy chain constant regions; also called Hz4B4k-2 (light chain); Hz4B4h-2 (heavy chain)
Turning to B1, in assay [1], the “fold greater antigen binding affinity than Hz4B4-1” value was 5 fold. For the same molecule, the “fold higher antigen binding affinity than the original mouse monoclonal antibody” value in assay [2] came out at 7 fold. In addition, the “fold greater antigen binding affinity than mouse monoclonal antibody 4B4-1-1” value in assay [3] stood at 7.3 fold.

B2: mouse monoclonal antibody 4B4-1-1 (antibody, V domains shown)
VH: QVQLQQPGAELVKPGASVKLSCKASGYTFSSYWMHWVKQRPGQVLEWIGEINPGNGHTNYNEKFKSKATLTVDKSSSTAYMQLSSLTSEDSAVYYCARSFTTARAFAYWGQGTLVTVSA
VL: DIVMTQSQATQSVTPGDRVSLSCRASQTISDYLHWYQQKSHESPRLLIKYASQSISGIPSRFSGSGSGSDFTLSINSVEPEDVGVYYCQDGHSFPPTFGGGTKLEIK
notes: Whole mouse monoclonal antibody from a hybridoma; also called 4B4 MAb; 4B4 monoclonal antibody
As usually defined, the Kd is the equilibrium constant for the complex coming apart. A high value points to a looser complex. As usually defined, the kon is the second-order rate constant of association. In general, koff refers to the rate constant with which the complex falls apart. Read a high koff as fast dissociation. As to B2, in assay [4], the Kd turned out to be 0.133 nM and the kon was 11600 M⁻¹ s⁻¹. Moreover, in assay [5], the Kd is 0.133 nM, the koff is 1.54e-06 s⁻¹ and the kon was 11600 M⁻¹ s⁻¹.

B3: humanized antibody Hz4B4-1 (antibody, V domains shown)
VH: B2 VH with Q5V, P7S, L11V, R40A, S76A, Q82E, T87R, S91T, A119S
VL: B1 VL with P9A, L11Q, L13V, S28T, A60S, T69S, L78V, A84G, V104L
notes: also called Hz4B4k-1 (light chain variable region); Hz4B4h-1 (heavy chain variable region)
In assay [6], B3 returned a Kd of 0.0872 nM, a koff of 4.36e-06 s⁻¹ and a kon of 50000 M⁻¹ s⁻¹. In assay [4], this molecule returned a Kd of 0.0872 nM, a koff of 4.36e-06 s⁻¹ and a kon of 50000 M⁻¹ s⁻¹. Besides, in assay [3], the “fold greater antigen binding affinity (Kd) than mouse antibody 4B4-1-1” value is ~1.5 fold and the “fold greater antigen binding affinity (Kd) than mouse monoclonal antibody 4B4-1-1” value worked out at 1.5 fold.

Values taken from patent US6458934 (LG CHEMICAL, dated 2002).
